Test results taken from patent US20250049972A1, “METHOD OF DETECTING PROSTATE CANCER IN A HUMAN SUBJECT USING A Cu 64 PSMA I&T INJECTION” (Curium US LLC, priority 2023, published 2025).

Columns and labels:
[1] = parameters: species or system human; settings: in vivo
Method: (§1) Radiation dosimetry estimates for normal organs were determined for copper Cu-64 PSMA I&T based on biodistribution collected from the 12 patients enrolled in the trial. Whole-body PET/CT images acquired at 1 hour (±15 minutes), 4 hours (±30 minutes), and 24 hours (±2.0 hours) post injection were used together with blood samples collected prior to and 1, 2, 4, and 24 hours post injection and total voided urine samples collected for 0 to 1-hour and 1 to 4-hour intervals post injection.
This analysis was performed with the objective of estimation of radiation dosimetry of Cu-64 PSMA I&T based on bio-distribution determined using PET image data collected in twelve human subjects. […] The maximum deviation was 13%. Activities were normalized to 100% based on the first imaging time to prevent over or under estimation of absorbed dose.
Third, calculating Source Organ Time-Activity Bio-Kinetic Modeling using bio-distribution data for the listed organs utilizing the following Equation Three: […]
The bio-distribution data for the listed organs and remainder tissues in the study may be determined using the image quantification methodology described above. Organ and tissue data may be decay corrected to fit in a least squares sense using non-linear regression with sums of exponentials of the form shown in Equation Three.

[2] = Phase 2 diagnostic image quality, 3-point scale, independent readers; format: in vivo, human
Method: Diagnostic quality was assessed for all scans using a 3-point scale and then percentages for each category were summarized for each reader and time point. No formal hypothesis testing was performed.

[3] = clinical; settings: human, in vivo, total radioactivity
Method: as §1
Percent injected activity as a function of time was determined for the quantified organs listed below.
First, calculating Activity Quantification in PET Images utilizing the following Equation One: […]
Use of this equation can calculate organ/tissue and whole body activity concentration levels.
Second, Normalization of PET Quantification utilizing a normalization factor to decay values using urine activity utilizing the following Equation Two:
A normalization factor can be determined and applied to the decay corrected % IA values by assuming 100% quantification of the total body activity at the first time point and assuming accurate urine activity assay according to Equation Two.

[4] = parameters: species or system human; settings: in vivo; remark: listed apart in the source
Method: Safety was assessed in all patients following administration of copper Cu-64 PSMA I&T injection through collection of AE reporting, laboratory assessments, vital signs, and ECG. The Phase 2 portion assessed safety after copper Cu-64 PSMA I&T injection through collection of AEs 24 hours post-injection, lab assessments, vital signs, and ECGs.

[5] = Mean % Injected Dose, GI Total Contents
[6] = Mean % Injected Dose, Heart wall
[7] = Mean % Injected Dose, Lacrimal Glands
[8] = Mean % Injected Dose, Pituitary
[9] = Mean % Injected Dose, Red Marrow
[10] = Mean % Injected Dose, Salivary glands
[11] = Mean % Injected Dose, Stomach Wall
[12] = Mean % Injected Dose, Whole Body

O=C(O)CC[C@H](NC(=O)N[C@@H](CCCCNC(=O)CCCCCCC(=O)NCCCC[C@@H](NC(=O)[C@@H](Cc1ccccc1)NC(=O)[C@@H](Cc1ccc(O)c(I)c1)NC(=O)CC[C@H](C(=O)O)N1CCN(CC(=O)O)CCN(CC(=O)O)CCN(CC(=O)O)CC1)C(=O)O)C(=O)O)C(=O)O [Cu-64 PSMA I&T, 64 Cu-(3S, 7S, 26R, 29R, 32R, 37R)-29-benzyl-32(4-hydroxy-3-iodobenzyl)-5, 13, 20, 28, 31, 34-hexaoxo-37-(4,7,10-tris(carboxymethyl)-1,4,7, 10-tetraazacyclododecan-1-yl)-4,6, 12, 21, 27, 30, 33-heptaazaheptatriacontane-1,3,7, 26, 37-pentacarboxylic acid, metal not drawn]
Normalized Number of Disintegrations, Mean, Remainder ([1]; human): 6.9 h
Dose Estimate, Mean, Adrenals [1]: 0.045 mGy/MBq
Dose Estimate, Mean, Brain [1]: 0.011 mGy/MBq
Dose Estimate, Mean, Esophagus [1]: 0.020 mGy/MBq
Dose Estimate, Mean, Eyes [1]: 0.010 mGy/MBq
Dose Estimate, Mean, Gallbladder Wall [1]: 0.051 mGy/MBq
Dose Estimate, Mean, Heart Wall [1]: 0.055 mGy/MBq
Dose Estimate, Mean, Kidneys [1]: 0.19 mGy/MBq
Dose Estimate, Mean, Lacrimal Glands [1]: 0.16 mGy/MBq
Dose Estimate, Mean, Left colon [1]: 0.25 mGy/MBq
Dose Estimate, Mean, Liver [1]: 0.25 mGy/MBq
Dose Estimate, Mean, Lungs [1]: 0.018 mGy/MBq
Dose Estimate, Mean, Osteogenic Cells [1]: 0.018 mGy/MBq
Dose Estimate, Mean, Pancreas [1]: 0.054 mGy/MBq
Dose Estimate, Mean, Pituitary [1]: 0.037 mGy/MBq
Dose Estimate, Mean, Prostate [1]: 0.027 mGy/MBq
Dose Estimate, Mean, Rectum [1]: 0.15 mGy/MBq
Dose Estimate, Mean, Red Marrow [1]: 0.023 mGy/MBq
Dose Estimate, Mean, Right colon [1]: 0.22 mGy/MBq
Dose Estimate, Mean, Salivary Glands [1]: 0.12 mGy/MBq
Dose Estimate, Mean, Small Intestine [1]: 0.067 mGy/MBq
Dose Estimate, Mean, Spleen [1]: 0.048 mGy/MBq
Dose Estimate, Mean, Stomach Wall [1]: 0.063 mGy/MBq
Dose Estimate, Mean, Testes [1]: 0.035 mGy/MBq
Dose Estimate, Mean, Thymus [1]: 0.015 mGy/MBq
Dose Estimate, Mean, Thyroid [1]: 0.015 mGy/MBq
Dose Estimate, Mean, Total Body [1]: 0.022 mGy/MBq
Dose Estimate, Mean, Urinary Bladder Wall [1]: 0.074 mGy/MBq
Normalized Number of Disintegrations, Mean, Heart wall [1]: 0.17 h
Normalized Number of Disintegrations, Mean, Kidneys [1]: 0.69 h
Normalized Number of Disintegrations, Mean, Lacrimal Glands [1]: 0.0033 h
Normalized Number of Disintegrations, Mean, Liver [1]: 5.0 h
Normalized Number of Disintegrations, Mean, Pancreas [1]: 0.058 h
Normalized Number of Disintegrations, Mean, Pituitary [1]: 0.00033 h
Normalized Number of Disintegrations, Mean, Prostate [1]: 0.0047 h
Normalized Number of Disintegrations, Mean, Red Marrow [1]: 0.28 h
Normalized Number of Disintegrations, Mean, Salivary glands [1]: 0.12 h
Normalized Number of Disintegrations, Mean, Spleen [1]: 0.096 h
Normalized Number of Disintegrations, Mean, Stomach Wall [1]: 0.083 h
Normalized Number of Disintegrations, Mean, Testes [1]: 0.015 h
Normalized Number of Disintegrations, Mean, Thyroid [1]: 0.0035 h
Normalized Number of Disintegrations, Mean, Whole Body [1]: 15 h
Image Quality Acceptable, patients (%) ([2]; Reader 1, 1 Hour Post Dose): 26 (100.00%)
Image Quality Acceptable, patients (%) ([2]; Reader 1, 4 Hours Post Dose): 26 (100.00%)
Image Quality Acceptable, patients (%) ([2]; Reader 2, 1 Hour Post Dose): 24 (92.31%)
Image Quality Acceptable, patients (%) ([2]; Reader 2, 4 Hours Post Dose): 26 (100.00%)
Image Quality Acceptable, patients (%) ([2]; Reader 3, 1 Hour Post Dose): 26 (100.00%)
Image Quality Acceptable, patients (%) ([2]; Reader 3, 4 Hours Post Dose): 26 (100.00%)
image quality as assessed by the independent readers ([2]; at both 1 and 4 hours): acceptable
tissue uptake dose at 1 h ([3]; Mean % Injected Dose, Blood): 5.8 %ID
tissue uptake dose at 2 h ([3]; Mean % Injected Dose, Blood): 4.2 %ID
tissue uptake dose at 4 h ([3]; Mean % Injected Dose, Blood): 3.2 %ID
tissue uptake dose at 24 h ([3]; Mean % Injected Dose, Blood): 4.4 %ID
tissue uptake dose at 1 h [3, 5]: 10 %ID
tissue uptake dose at 4 h [3, 5]: 10 %ID
tissue uptake dose at 24 h [3, 5]: 12 %ID
tissue uptake dose at 1 h [3, 6]: 1.2 %ID
tissue uptake dose at 4 h [3, 6]: 0.84 %ID
tissue uptake dose at 24 h [3, 6]: 0.96 %ID
tissue uptake dose at 1 h ([3]; Mean % Injected Dose, Kidneys): 8.6 %ID
tissue uptake dose at 4 h ([3]; Mean % Injected Dose, Kidneys): 5 %ID
tissue uptake dose at 24 h ([3]; Mean % Injected Dose, Kidneys): 2.1 %ID
tissue uptake dose at 1 h [3, 7]: 0.023 %ID
tissue uptake dose at 4 h [3, 7]: 0.024 %ID
tissue uptake dose at 24 h [3, 7]: 0.015 %ID
tissue uptake dose at 1 h ([3]; Mean % Injected Dose, Liver): 19 %ID
tissue uptake dose at 4 h ([3]; Mean % Injected Dose, Liver): 25 %ID
tissue uptake dose at 24 h ([3]; Mean % Injected Dose, Liver): 30 %ID
tissue uptake dose at 1 h ([3]; Mean % Injected Dose, Pancreas): 0.35 %ID
tissue uptake dose at 4 h ([3]; Mean % Injected Dose, Pancreas): 0.39 %ID
tissue uptake dose at 24 h ([3]; Mean % Injected Dose, Pancreas): 0.28 %ID
tissue uptake dose at 1 h [3, 8]: 0.0021 %ID
tissue uptake dose at 4 h [3, 8]: 0.0019 %ID
tissue uptake dose at 24 h [3, 8]: 0.0017 %ID
tissue uptake dose at 1 h ([3]; Mean % Injected Dose, Prostate): 0.036 %ID
tissue uptake dose at 4 h ([3]; Mean % Injected Dose, Prostate): 0.031 %ID
tissue uptake dose at 24 h ([3]; Mean % Injected Dose, Prostate): 0.021 %ID
tissue uptake dose at 1 h [3, 9]: 1.7 %ID
tissue uptake dose at 4 h [3, 9]: 1.4 %ID
tissue uptake dose at 24 h [3, 9]: 1.5 %ID
tissue uptake dose at 24 h ([3]; Mean % Injected Dose, Remainder): 52 %ID
tissue uptake dose at 1 h [3, 10]: 1.1 %ID
tissue uptake dose at 4 h [3, 10]: 0.95 %ID
tissue uptake dose at 24 h [3, 10]: 0.4 %ID
tissue uptake dose at 1 h ([3]; Mean % Injected Dose, Spleen): 1.5 %ID
tissue uptake dose at 4 h ([3]; Mean % Injected Dose, Spleen): 0.54 %ID
tissue uptake dose at 24 h ([3]; Mean % Injected Dose, Spleen): 0.29 %ID
tissue uptake dose at 1 h [3, 11]: 0.52 %ID
tissue uptake dose at 4 h [3, 11]: 0.51 %ID
tissue uptake dose at 24 h [3, 11]: 0.42 %ID
tissue uptake dose at 1 h ([3]; Mean % Injected Dose, Testes): 0.11 %ID
tissue uptake dose at 4 h ([3]; Mean % Injected Dose, Testes): 0.1 %ID
tissue uptake dose at 24 h ([3]; Mean % Injected Dose, Testes): 0.065 %ID
tissue uptake dose at 1 h ([3]; Mean % Injected Dose, Thyroid): 0.031 %ID
tissue uptake dose at 4 h ([3]; Mean % Injected Dose, Thyroid): 0.019 %ID
tissue uptake dose at 24 h ([3]; Mean % Injected Dose, Thyroid): 0.016 %ID
tissue uptake dose at 1 h [3, 12]: 96 %ID
tissue uptake dose at 4 h [3, 12]: 87 %ID
tissue uptake dose at 24 h [3, 12]: 81 %ID
total activity recovery (whole-body PET plus urine), % of injected activity at 1 hour ([3]; sum of unnormalized activity recovery from whole body PET quantification and urinary excretion, % of the injected activity): 101%
patients who experienced at least 1 AE [4]: 2
relationship of the adverse events to study product [4]: not related
serious adverse events attributed to the injection [4]: No serious adverse events
seriousness of the adverse events [4]: not serious
severity of the adverse events [4]: mild
